Measurements reported in patent publication US20220017635A1 (Kyowa Kirin, published 2022).
Changes are numbered by the printed parent chain. In names and notes the source's numbering stands.

Tests used:
human EGFR on cells [1] = molecular target: T1, human EGFR on cells (human, UniProt P00533 25-1210); assay: flow cytometry on OE21 cells; x axis PE-A [E]
T1 construct: also called membrane-associated EGFR on OE21 cells

human EGFR-FLAG-Fc = molecular target: T2, human EGFR-FLAG-Fc (human, UniProt P00533 25-638); assay: phage ELISA (scFv) on immobilized human EGFR-Fc
T2 construct: also called human EGFR-Fc
Description: Specifically, it was carried out by adding a phage solution diluted with PBS-T containing 10% Block Ace (manufactured by Dainippon Pharmaceutical Co., Ltd.) to a 96-well immunoplate (NUNC, Inc.) on which an antigen protein was immobilized to allow a reaction to proceed at room temperature for 1 hour, followed by washing with PBS-T, and then, adding an anti-M13 antibody (manufactured by GE Healthcare, Inc.) labeled with horseradish peroxidase diluted with 1% BSA-PBS thereto to allow a reaction to proceed at room temperature for 1 hour.
The confirmation of a clone that specifically recognizes human and monkey EGFR-Fc was carried out by the ELISA method.

monkey EGFR-FLAG-Fc = molecular target: T3, monkey EGFR-FLAG-Fc (monkey, UniProt P55245 25-638); assay: phage ELISA (scFv) on immobilized monkey EGFR-Fc
T3 construct: also called monkey EGFR-Fc; not shown: FLAG-Fc added to the C terminus

human EGFR on cells [2] = molecular target: T1, human EGFR on cells; assay: flow cytometry on OE21 cells; x axis Alexa Fluor 488-A [A]
human EGFR on cells [3] = molecular target: T1, human EGFR on cells; assay: flow cytometry on OE21 cells; x axis Alexa Fluor 488-A [B]
human TfR on cells = molecular target: T4, human TfR on cells (human, UniProt P02786 1-760); assay: flow cytometry of monoclonal phage (scFv) on human TfR/CHO cells
T4 construct: also called human TfR/CHO; human TfFR/CHO cells
Description: (§1) After the reaction was allowed to proceed under 4° C. for 30 minutes, each well was washed 3 times with PBS-T.

monkey TfR on CHO cells = molecular target: T5, monkey TfR on CHO cells (monkey); assay: flow cytometry of monoclonal phage (scFv) on monkey TfR/CHO cells
T5 construct: also called monkey TfR/CHO cells
T5 chain: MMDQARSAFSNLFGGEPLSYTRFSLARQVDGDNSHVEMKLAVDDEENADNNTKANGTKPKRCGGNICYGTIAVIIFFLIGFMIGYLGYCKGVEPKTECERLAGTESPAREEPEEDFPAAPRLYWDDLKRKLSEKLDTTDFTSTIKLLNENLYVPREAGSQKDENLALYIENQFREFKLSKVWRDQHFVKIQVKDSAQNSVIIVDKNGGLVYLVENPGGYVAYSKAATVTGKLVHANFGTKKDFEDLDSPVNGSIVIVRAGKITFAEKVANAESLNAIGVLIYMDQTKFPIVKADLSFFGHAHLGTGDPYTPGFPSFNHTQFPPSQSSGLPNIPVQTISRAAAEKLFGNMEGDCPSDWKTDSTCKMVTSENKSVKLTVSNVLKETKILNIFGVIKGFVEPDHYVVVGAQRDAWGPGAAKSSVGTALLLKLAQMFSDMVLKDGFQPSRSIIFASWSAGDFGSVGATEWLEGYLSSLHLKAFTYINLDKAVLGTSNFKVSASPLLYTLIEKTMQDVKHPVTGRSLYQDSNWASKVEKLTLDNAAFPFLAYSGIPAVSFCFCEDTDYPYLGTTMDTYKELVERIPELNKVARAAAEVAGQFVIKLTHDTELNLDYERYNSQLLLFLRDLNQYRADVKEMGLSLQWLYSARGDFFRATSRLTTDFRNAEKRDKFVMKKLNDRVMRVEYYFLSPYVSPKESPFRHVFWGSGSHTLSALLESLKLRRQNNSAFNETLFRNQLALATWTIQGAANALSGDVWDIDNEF
Description: as §1

mouse TfR on CHO cells = molecular target: T6, mouse TfR on CHO cells (mouse, UniProt Q62351 1-763); assay: flow cytometry on mouse TfR/CHO cells
T6 construct: also called mouse TfR/CHO
Description: Subsequently, an epitope analysis for various types of TfR antibodies was carried out.

[4] = molecular target: T7, huTfR with mouse apical domain (human/mouse chimera, UniProt P02786 89-760); assay: ELISA on immobilized chimeric TfR
T7 construct: His tag added; also called chimeric protein of human TfR extracellular domain with mouse apical domain
T7 chain: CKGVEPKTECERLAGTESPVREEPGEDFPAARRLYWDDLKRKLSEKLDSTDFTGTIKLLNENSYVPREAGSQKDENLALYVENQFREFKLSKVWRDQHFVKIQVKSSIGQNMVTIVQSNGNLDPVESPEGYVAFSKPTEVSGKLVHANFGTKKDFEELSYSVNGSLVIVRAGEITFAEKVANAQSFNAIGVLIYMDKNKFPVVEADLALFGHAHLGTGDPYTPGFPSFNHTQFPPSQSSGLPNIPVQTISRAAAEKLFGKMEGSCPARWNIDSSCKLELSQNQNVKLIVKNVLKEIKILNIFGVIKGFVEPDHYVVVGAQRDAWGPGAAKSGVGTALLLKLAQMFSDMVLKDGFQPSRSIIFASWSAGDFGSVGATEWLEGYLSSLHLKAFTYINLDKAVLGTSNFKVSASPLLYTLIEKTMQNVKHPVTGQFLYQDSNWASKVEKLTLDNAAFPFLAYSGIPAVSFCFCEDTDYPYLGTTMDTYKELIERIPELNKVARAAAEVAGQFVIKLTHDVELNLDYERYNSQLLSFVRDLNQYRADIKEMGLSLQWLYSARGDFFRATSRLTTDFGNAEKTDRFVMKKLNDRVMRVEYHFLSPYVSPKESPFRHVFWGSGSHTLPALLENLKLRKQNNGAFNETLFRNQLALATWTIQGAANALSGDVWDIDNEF
Description: (§2) ELISA was carried out by the following method. To a 96-well immunoplate (NUNC, Inc.) on which an antigen protein was immobilized, 1% (w/v) BSA-PBS(−) pH 7.0 without KCl (hereinafter referred to as blocking solution, Nacalai Tesque, Inc.) was added to perform blocking at room temperature, and thereafter, the anti-TfR antibody diluted with the same solution was added thereto and a reaction was allowed to proceed at room temperature for 1 hour. Thereafter, washing was performed with 0.05% (w/v)-tPBS (1×) without KCl (pH 7.2) (hereinafter referred to as washing solution, Nacalai Tesque, Inc.), Anti-Human IgG (Fc) Goat IgG Fab″-HRP (IBL, Inc.) diluted with the blocking solution was added thereto, and a reaction was allowed to proceed at room temperature for 1 hour. Thereafter, washing was performed with the washing solution, and 1-Step (registered trademark) Ultra TMB-ELISA Substrate Solution (Thermo, Inc.) was added thereto, and a reaction was allowed to proceed at room temperature. The coloring reaction was stopped by adding a 5 N HCl solution, and an absorbance at a wavelength of 450 nm (reference wavelength: 570 nm) was measured using a plate reader (EPOCH 2: BioTek Instruments, Inc.).
(§3) Further, a value obtained by subtracting the absorbance at the reference wavelength of 570 nm from the absorbance at a wavelength of 450 nm was regarded as the binding activity to any of various types of antigen proteins, and a case where a value obtained by dividing the binding activity to any of various types of chimeric TfR by the binding activity to His-huTfR was 0.5 or more was denoted by ++, a case where the value was 0.2 or more and less than 0.5 was denoted by +, and a case where the value was less than 0.2 was denoted by −.

chimeric TfR A02 = molecular target: T8, chimeric TfR A02 (human/mouse chimera, UniProt P02786 89-760); assay: ELISA on immobilized chimeric TfR
T8 construct: also called D352S-S355A-D356R-K358N
T8 chain: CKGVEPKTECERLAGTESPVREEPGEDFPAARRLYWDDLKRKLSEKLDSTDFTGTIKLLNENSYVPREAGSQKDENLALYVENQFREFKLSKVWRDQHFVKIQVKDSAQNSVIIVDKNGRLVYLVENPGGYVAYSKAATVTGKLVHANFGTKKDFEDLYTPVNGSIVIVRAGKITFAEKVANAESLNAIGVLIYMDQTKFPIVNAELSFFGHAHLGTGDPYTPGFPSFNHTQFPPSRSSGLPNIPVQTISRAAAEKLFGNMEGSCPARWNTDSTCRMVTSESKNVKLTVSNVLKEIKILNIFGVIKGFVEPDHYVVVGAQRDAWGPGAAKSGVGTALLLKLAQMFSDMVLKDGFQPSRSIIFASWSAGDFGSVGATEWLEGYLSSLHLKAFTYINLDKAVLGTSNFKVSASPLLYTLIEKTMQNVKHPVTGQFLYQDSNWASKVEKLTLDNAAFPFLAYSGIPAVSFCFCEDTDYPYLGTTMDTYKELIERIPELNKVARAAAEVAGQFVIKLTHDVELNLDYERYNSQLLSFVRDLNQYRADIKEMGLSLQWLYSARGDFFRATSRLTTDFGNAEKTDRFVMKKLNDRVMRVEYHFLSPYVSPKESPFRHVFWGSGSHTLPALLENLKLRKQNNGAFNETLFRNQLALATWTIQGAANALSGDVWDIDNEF
Description: as §2, §3

chimeric TfR A07 = molecular target: T9, chimeric TfR A07 (human/mouse chimera, UniProt P02786 89-760); assay: ELISA on immobilized chimeric TfR
T9 construct: also called M365L-V366E-E369Q
Description: as §2, §3

[5] = molecular target: T10, huTfR with mouse protease-like domain (human/mouse chimera); assay: ELISA on immobilized chimeric TfR; grade = binding relative to His-huTfR (++ 0.5 or more, + 0.2 to less than 0.5)
T10 construct: His tag added; also called chimeric protein of human TfR extracellular domain with mouse protease-like domain
T10 chain: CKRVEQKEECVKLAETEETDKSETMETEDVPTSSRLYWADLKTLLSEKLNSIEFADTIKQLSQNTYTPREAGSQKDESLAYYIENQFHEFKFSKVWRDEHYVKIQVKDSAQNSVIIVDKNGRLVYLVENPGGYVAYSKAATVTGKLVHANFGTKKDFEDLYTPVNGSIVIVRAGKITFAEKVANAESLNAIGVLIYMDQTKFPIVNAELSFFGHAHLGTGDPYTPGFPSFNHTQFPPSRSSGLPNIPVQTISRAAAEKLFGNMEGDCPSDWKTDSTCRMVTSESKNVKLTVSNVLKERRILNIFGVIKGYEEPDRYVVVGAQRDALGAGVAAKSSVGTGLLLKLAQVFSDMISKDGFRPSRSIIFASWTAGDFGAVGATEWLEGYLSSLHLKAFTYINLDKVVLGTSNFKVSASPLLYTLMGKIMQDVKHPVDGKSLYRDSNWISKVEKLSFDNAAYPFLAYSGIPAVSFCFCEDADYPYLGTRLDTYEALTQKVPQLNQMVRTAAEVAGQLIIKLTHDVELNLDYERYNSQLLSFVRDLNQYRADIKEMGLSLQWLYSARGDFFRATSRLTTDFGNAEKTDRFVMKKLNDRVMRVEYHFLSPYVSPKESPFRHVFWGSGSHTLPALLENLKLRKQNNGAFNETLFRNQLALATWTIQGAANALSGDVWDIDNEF
Description: as §2, §3

chimeric TfR A03 = molecular target: T11, chimeric TfR A03 (human/mouse chimera, UniProt P02786 89-760); assay: as above
T11 construct: also called D245E-K261E
Description: as §2, §3

chimeric TfR A04 = molecular target: T12, chimeric TfR A04 (human/mouse chimera, UniProt P02786 89-760); assay: as above
T12 construct: also called D245E-K261E-D356R
Description: as §2, §3

chimeric TfR A05 = molecular target: T13, chimeric TfR A05 (human/mouse chimera, UniProt P02786 89-760); assay: as above
T13 construct: also called P249S-L274F
Description: as §2, §3

chimeric TfR A14 = molecular target: T14, chimeric TfR A14 (human/mouse chimera, UniProt P02786 89-760); assay: as above
T14 construct: also called D204Q-K205S-E369Q
Description: as §2, §3

B1: KME09 (antibody, V domains shown)
VH: QVQLVQSGAEVKKPGSSVKVSCKASGGTFSSFAWGWVRQAPGQGLEWMGEIRPGFGTEIYAQNFQDRVTFITDEATSTTYMELSSLKSEDTAVYYCARGLLRSGYIDNPCDIWGQGTMVTVSS
VL: DIQMTQSPSSLSASVGDRVTITCRASQGISSWLAWYQQKPEKAPKSLIYAASSLQSGVPSRFSGSGSGTDFTLTISSLQPEDFATYFCQQYYNYPYTFGQGTKLEIK
notes: IgG4PE or IgG4PE R409K; also called anti-EGFR antibody KME09
binding result (human EGFR on cells [1]): binds

B2: E08 (antibody, V domains shown)
VH: EVQLVESGGGLVQPGGSLRLSCAASGFSFNNNAMNWVRQAPGKGLEWVSGIRADGGTTYYADSVKGRFTISRDNSKNTLYLQMNSLRAEDTAVYFCGKTPDWEIFYYAMDAWGQGTTVTVSS
VL: not shown
notes: also called anti-EGFR antibody E08; Clone E08
binding result (human EGFR-FLAG-Fc): binds | binding result (monkey EGFR-FLAG-Fc): binds | binding result (human EGFR on cells [2]): binds

B3: E12 (antibody, V domains shown)
VH: QVQLVESGGGLVQPGGSLRLSCAASRFTFSAYAMGWVRQAPGKGLEWVSIIDSGGVYTYYADSMKGRFTISRDNSKNTLYLQMNSLRAEDTAVYYCARDHYGVVWGLGDYWGQGTLVTVSS
VL: not shown
notes: also called anti-EGFR antibody E12; Clone E12
binding result (human EGFR-FLAG-Fc): binds | binding result (monkey EGFR-FLAG-Fc): binds | binding result (human EGFR on cells [3]): binds

B4: PSM4072 (antibody, V domains shown)
VH: EVQLVETGGGLVQPGGSLRLSCTASGFTFESHAMYWVRQAPGKGLEWVSGISNGGSSTEYADSVRGRFTISRDNSKNTVYLQMNSLRAEDTAVYYCARPRSPYLFYDAAGVWGQGTLVTVSS
VL: not shown
notes: as IgG it has the constant region of human IgG4PE or IgG4PE R409K; also called anti-TfR antibody PSM4072
binding result (human TfR on cells): binds | binding result (monkey TfR on CHO cells): binds

B5: cyno163 (antibody, V domains shown)
VH: B4 VH with T7S, T23A, E30S, S31T, H32Y, Y35S, L117M
VL: not shown
notes: as IgG it has the constant region of human IgG4PE or IgG4PE R409K; also called anti-TfR antibody cyno163
binding result (human TfR on cells): binds | binding result (monkey TfR on CHO cells): binds

B6: cyno292 (antibody, V domains shown)
VH: QVQLVQSGGGLVKPGGSLRISCTTSGFPFDGYTMTWVRQAPGKGLEWVSSISNGGSTIFVSDSVRGRFTISRDNAKNSLYLQMNNVGAEDTAVYYCARARDAYGWTLPSDIWGQGTMVTVSS
VL: not shown
notes: also called anti-TfR antibody cyno292
binding result (mouse TfR on CHO cells): no binding | ratio of ELISA binding activity (A450-A570) to chimeric TfR over that to His-huTfR [4]: < 0.2 ratio | ratio of ELISA binding activity (A450-A570) to chimeric TfR over that to His-huTfR (chimeric TfR A02): < 0.2 ratio | ratio of ELISA binding activity (A450-A570) to chimeric TfR over that to His-huTfR (chimeric TfR A07): < 0.2 ratio | binding result (monkey TfR on CHO cells): binds | ratio of ELISA binding activity (A450-A570) to chimeric TfR over that to His-huTfR [5]: ≥ 0.5 ratio | ratio of ELISA binding activity (A450-A570) to chimeric TfR over that to His-huTfR (chimeric TfR A03): ≥ 0.5 ratio | ratio of ELISA binding activity (A450-A570) to chimeric TfR over that to His-huTfR (chimeric TfR A04): ≥ 0.5 ratio | ratio of ELISA binding activity (A450-A570) to chimeric TfR over that to His-huTfR (chimeric TfR A05): ≥ 0.5 ratio | ratio of ELISA binding activity (A450-A570) to chimeric TfR over that to His-huTfR (chimeric TfR A14): ≥ 0.5 ratio

B7: R327 (antibody, V domains shown)
VH: EVQLVETGGGLVQPGGSLRLSCAASGFSFDKYTMNWVRQAPGKGLEWVSVISNGGVSTDYADSVKGRFTVSRDNSKNTLYLQMNSLRAEDMATYYCARASQPWLYRTGADVWGQGTMVTVSS
VL: not shown
notes: also called anti-TfR antibody R327
binding result (mouse TfR on CHO cells): no binding | ratio of ELISA binding activity (A450-A570) to chimeric TfR over that to His-huTfR [5]: ≥ 0.5 ratio

B8: TfR1071 (antibody, V domains shown)
VH: B7 VH with E1Y, T7S, M117L
VL: not shown
notes: also called anti-TfR antibody TfR1071
binding result (mouse TfR on CHO cells): no binding | ratio of ELISA binding activity (A450-A570) to chimeric TfR over that to His-huTfR [5]: ≥ 0.5 ratio

B9: TfR1007 (antibody, V domains shown)
VH: EVQLVESGGGLVQPGGSLSLSCAASGFSFKGYSMSWVRQAPGKGLEWVSSLSNGGGSSYYADSVKGRFTISRDNSKNTLYLQMNSLRAEDTAVYYCAKTLGAYYIKSAMDVWGQGTTVTVSS
VL: not shown
notes: also called anti-TfR antibody TfR1007
ratio of ELISA binding activity (A450-A570) to chimeric TfR over that to His-huTfR [5]: ≥ 0.5 ratio
